Experimental data from paper PMC5549631.

What was measured:
[1] = target: recombinant nucleosome labelled with Oregon Green 488 on histone H4 Q27C (Xenopus) (UniProt P62799); assay: other fluorescence titration
[2] = target: acidic patch mutant nucleosome (H2A E61A, E64A, D90, E92A) (Xenopus) (UniProt P06897); assay: other fluorescence titration
[3] = target: acidic patch mutant nucleosome (H2A E61A, E64A, D90, E92A) (Xenopus) (UniProt P06897)

Substance | Kd [1] | Kd [2] | histone methyltransferase activity on acidic patch mutant nucleosomes [3] | fold decrease of nucleosome binding affinity against Set8(153-352) [1]
Set8(175-352) (from UniProt Q9NQR1-2 175-352) (domain or fragment) | 1800 nM | – | – | –
full length Set8 (from UniProt Q9NQR1-2 1-352) (enzyme) | 5.3 nM | 60 nM | – | –
Set8(153-352) R179A, K180A (from UniProt Q9NQR1-2 153-352) (domain or fragment) | – | – | – | 2.5 fold
Set8(153-352) R188A, R189A (from UniProt Q9NQR1-2 153-352) (domain or fragment) | 2500 nM | – | – | –

Further substances by falling Kd [1], results first:

Kd [1] | Kd [2] | histone methyltransferase activity on acidic patch mutant nucleosomes [3] | fold decrease of nucleosome binding affinity against Set8(153-352) [1] | Substance
7.9 nM | 1300 nM | 5.4% | – | Set8(153-352) (from UniProt Q9NQR1-2 153-352) (domain or fragment)
4.5 nM | – | – | – | Set8(153-352) H347F (from UniProt Q9NQR1-2 153-352) (domain or fragment)
